Assay results from PMC5824745.

Experiments:
Gapdh = Gapdh (UniProt P16858); experiment: m7GDP-agarose cap pull-down, immunoblot; settings: reference: wild-type mouse forebrain; sites S209
eIF4G = eIF4G (UniProt Q6NZJ6); experiment: m7GDP-agarose cap pull-down, immunoblot; settings: reference: wild-type mouse forebrain; sites S209
rpL13a = rpL13a (UniProt P19253); experiment: m7GDP-agarose cap pull-down, immunoblot; settings: reference: wild-type mouse forebrain; sites S209
[1] = biological target: eukaryotic Initiation Factor 4E (eIF4E), wild type (mouse (endogenous in forebrain)) (UniProt P63073); experiment: pull-down; cap-column pulldown: 500 ug forebrain lysate protein with 50 ul m7GDP agarose in buffer C (50 mM MOPS-KOH pH 7.4, 100 mM NaCl, 50 mM NaF, 0.5 mM EDTA, 0.5 mM EGTA, 0.1 mM GTP), 90 min at 4 C; eIF4E held by its ligand m7GDP; cap-bound fraction immunoblotted and quantified, normalised to input

Chain of Gapdh, P16858 1-333 (natural protein; other documents disagree on this pair) (P16858 whole entry): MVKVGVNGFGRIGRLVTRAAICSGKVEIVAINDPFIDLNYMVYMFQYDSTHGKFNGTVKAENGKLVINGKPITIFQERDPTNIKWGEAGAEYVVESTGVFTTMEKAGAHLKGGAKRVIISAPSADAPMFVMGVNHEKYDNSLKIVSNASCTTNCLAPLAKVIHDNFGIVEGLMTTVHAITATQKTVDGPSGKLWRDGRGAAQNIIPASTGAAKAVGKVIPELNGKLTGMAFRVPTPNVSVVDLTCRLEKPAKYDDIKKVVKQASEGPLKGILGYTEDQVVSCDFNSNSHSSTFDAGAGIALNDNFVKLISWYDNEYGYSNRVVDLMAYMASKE

Substance: eIF4E (from UniProt P63073) 4Eki (S209A knock-in) forebrain
- other: cap-bound band intensity normalized to input (Gapdh): same; reference 0.998 ± 0.254
- other: cap-bound band intensity normalized to input (eIF4G): same; reference 1.002 ± 0.149
- other: cap-bound band intensity normalized to input (rpL13a): weaker; reference 0.9975 ± 0.1723

Substance: Gapdh, P16858 1-333 (natural protein; other documents disagree on this pair)
- cap-bound protein (arbitrary units, normalised to input) (arbitrary units) [1]: 0.998
